From publication PMC11555413 (Nature Communications, 2024)

Target: the molecule itself
Experiment: SEC

B1: Myc-APRIL (ligand, UniProt O75888 116-250, looked up)
chain: SVLHLVPINATSKDDSDVTEVMWQPALRRGRGLQAQGYGVRIQDAGVYLLYSQVLFQDVTFTMGQVVSREGQGRQETLFRCIRSMPSHPDRAYNSCYSAGVFHLHQGDILSVIIPRARAKLNLSPHGTFLGFVKL
  stoichiometry N: 3

B2: APRIL-Myc (ligand, UniProt O75888 116-250, looked up)
chain: SVLHLVPINATSKDDSDVTEVMWQPALRRGRGLQAQGYGVRIQDAGVYLLYSQVLFQDVTFTMGQVVSREGQGRQETLFRCIRSMPSHPDRAYNSCYSAGVFHLHQGDILSVIIPRARAKLNLSPHGTFLGFVKL
  stoichiometry N: 3
